Ends that are not written are not given here.
Target: Opr86 outer membrane protein on P. stutzeri cells (P. stutzeri)
Assay: fluorometry of cells recovered from spiked 1 L Jet A fuel and labeled with 1.5 uM peptide-QD545, at the LOD of 5 x 10^5 CFU

| Binder | Fluorescence (RFU) |
| --- | --- |
| PRIRKSH (also: conjugated to quantum dot) [OPP1 peptide-quantum dot conjugate] | 820 RFU |

Target: Opr86 outer membrane protein on A. venetianus cells (A. venetianus)
Assay: as above

| Binder | Fluorescence (RFU) |
| --- | --- |
| PRIRKSH (also: conjugated to quantum dot) [OPP1 peptide-quantum dot conjugate] | 773 RFU |

Target: Opr86 outer membrane protein on P. stutzeri cells (P. stutzeri)
Assay: fluorometry at 525 nm of 1x10^9 P. stutzeri cells labeled with peptide-QD525 conjugate

| Binder | Fluorescence (RFU) |
| --- | --- |
| PRIRKSH (also: conjugated to quantum dot) [OPP1 peptide-quantum dot conjugate] | 12300 RFU |
| RKKSRIR (conjugated to a quantum dot (QD525)) [OPP6 peptide-quantum dot conjugate] | 4130 RFU |
| IITMKRR (conjugated to a quantum dot (QD525)) [OPP5 peptide-quantum dot conjugate] | 4410 RFU |
| LRPLMNR (conjugated to a quantum dot (QD525)) [OPP4 peptide-quantum dot conjugate] | 1380 RFU |
| MHNLNLL (conjugated to a quantum dot (QD525)) [OPP2 peptide-quantum dot conjugate] | 1850 RFU |
| LPSTIHR (conjugated to a quantum dot (QD525)) [OPP3 peptide-quantum dot conjugate] | 2250 RFU |

Target: OprF outer membrane protein on P. stutzeri cells (P. stutzeri)
Assay: as above

| Binder | Fluorescence (RFU) |
| --- | --- |
| QMLLRLP (conjugated to a quantum dot (QD525)) [OBP9 peptide-quantum dot conjugate] | 3340 RFU |
| NMTNPPP (conjugated to a quantum dot (QD525)) [OBP6 peptide-quantum dot conjugate] | 2080 RFU |
| RRSNSQL (conjugated to a quantum dot (QD525)) [OBP4 peptide-quantum dot conjugate] | 4520 RFU |
| QITLRST (conjugated to a quantum dot (QD525)) [OBP7 peptide-quantum dot conjugate] | 2620 RFU |
